Laboratory results: the supplement of paper PMC5998384

Tested on: HeLa Kyoto
Test: melting temperature (median over replicates), in situ; higher = more thermally stable
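Further: HeLa Kyoto cells synchronized by double thymidine or nocodazole block, proteins quantified by TMT10plex mass spectrometry, three independent biological replicates.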

Sequence	melting temperature (cell cycle stage: G1/S) [°C]	melting temperature (cell cycle stage: mitosis) [°C]
MGDMANSSIEFHPKPQQQRDVPQAGGFGCTLAELRTLMELRGAEALQKIEEAYGDVSGLCRRLKTSPTEGLADNTNDLEKRRQIYGQNFIPPKQPKTFLQLVWEALQDVTLIILEVAAIVSLGLSFYAPPGEESEACGNVSGGAEDEGEAEAGWIEGAAILLSVICVVLVTAFNDWSKEKQFRGLQSRIEQEQKFTVIRNGQLLQVPVAALVVGDIAQVKYGDLLPADGVLIQANDLKIDESSLTGESDHVRKSADKDPMLLSGTHVMEGSGRMVVTAVGVNSQTGIIFTLLGAGGEEEEKKDKKGKQQDGAMESSQTKAKKQDGAVAMEMQPLKSAEGGEMEEREKKKANAPKKEKSVLQGKLTKLAVQIGKAGLVMSAITVIILVLYFVIETFVVEGRTWLAECTPVYVQYFVKFFIIGVTVLVVAVPEGLPLAVTISLAYSVKKMMKDNNLVRHLDACETMGNATAICSDKTGTLTTNRMTVVQSYLGDTHYKEIPAPSALTPKILDLLVHAISINSAYTTKILPPEKEGALPRQVGNKTECALLGFVLDLKRDFQPVREQIPEDKLYKVYTFNSVRKSMSTVIRMPDGGFRLFSKGASEILLKKCTNILNSNGELRGFRPRDRDDMVRKIIEPMACDGLRTICIAYRDFSAGQEPDWDNENEVVGDLTCIAVVGIEDPVRPEVPEAIRKCQRAGITVRMVTGDNINTARAIAAKCGIIQPGEDFLCLEGKEFNRRIRNEKGEIEQERLDKVWPKLRVLARSSPTDKHTLVKGIIDSTTGEQRQVVAVTGDGTNDGPALKKADVGFAMGIAGTDVAKEASDIILTDDNFTSIVKAVMWGRNVYDSISKFLQFQLTVNVVAVIVAFTGACITQDSPLKAVQMLWVNLIMDTFASLALATEPPTESLLLRKPYGRDKPLISRTMMKNILGHAVYQLAIIFTLLFVGELFFDIDSGRNAPLHSPPSEHYTIIFNTFVMMQLFNEINARKIHGERNVFDGIFSNPIFCTIVLGTFGIQIVIVQFGGKPFSCSPLSTEQWLWCLFVGVGELVWGQVIATIPTSQLKCLKEAGHGPGKDEMTDEELAEGEEEIDHAERELRRGQILWFRGLNRIQTQIRVVKAFRSSLYEGLEKPESKTSIHNFMATPEFLINDYTHNIPLIDDTDVDENEERLRAPPPPSPNQNNNAIDSGIYLTTHVTKSATSSVFSSSPGSPLHSVETSL [ATP2B3]	54.2	–
MGKEKTHINIVVIGHVDSGKSTTTGHLIYKCGGIDKRTIEKFEKEAAEMGKGSFKYAWVLDKLKAERERGITIDISLWKFETSKYYVTIIDAPGHRDFIKNMITGTSQADCAVLIVAAGVGEFEAGISKNGQTREHALLAYTLGVKQLIVGVNKMDSTEPPYSQKRYEEIVKEVSTYIKKIGYNPDTVAFVPISGWNGDNMLEPSANMPWFKGWKVTRKDGNASGTTLLEALDCILPPTRPTDKPLRLPLQDVYKIGGIGTVPVGRVETGVLKPGMVVTFAPVNVTTEVKSVEMHHEALSEALPGDNVGFNVKNVSVKDVRRGNVAGDSKNDPPMEAAGFTAQVIILNHPGQISAGYAPVLDCHTAHIACKFAELKEKIDRRSGKKLEDGPKFLKSGDAAIVDMVPGKPMCVESFSDYPPLGRFAVRDMRQTVAVGVIKAVDKKAAGAGKVTKSAQKAQKAK [EEF1A1]	52.4	52.4
MGLELFLDLVSQPSRAVYIFAKKNGIPLELRTVDLVKGQHKSKEFLQINSLGKLPTLKDGDFILTESSAILIYLSCKYQTPDHWYPSDLQARARVHEYLGWHADCIRGTFGIPLWVQVLGPLIGVQVPEEKVERNRTAMDQALQWLEDKFLGDRPFLAGQQVTLADLMALEELMQPVALGYELFEGRPRLAAWRGRVEAFLGAELCQEAHSIILSILEQAAKKTLPTPSPEAYQAMLLRIARIP [GSTT2B]	54.9	55.1
MGSRWSSEEERQPLLGPGLGPGLGASWRSREAAAAALPAAVPGPGRVYGRRWLVLLLFSLLAFVQGLVWNTWGPIQNSARQAYGFSSWDIALLVLWGPIGFLPCFAFMWLLDKRGLRITVLLTSFLMVLGTGLRCIPISDLILKRRLIHGGQMLNGLAGPTVMNAAPFLSTTWFSADERATATAIASMLSYLGGACAFLVGPLVVPAPNGTSPLLAAESSRAHIKDRIEAVLYAEFGVVCLIFSATLAYFPPRPPLPPSVAAASQRLSYRRSVCRLLSNFRFLMIALAYAIPLGVFAGWSGVLDLILTPAHVSQVDAGWIGFWSIVGGCVVGIAMARFADFIRGMLKLILLLLFSGATLSSTWFTLTCLNSITHLPLTTVTLYASCILLGVFLNSSVPIFFELFVETVYPVPEGITCGVVTFLSNMFMGVLLFFLTFYHTELSWFNWCLPGSCLLSLLLILCFRESYDRLYLDVVVSV [DIRC2]	54.8	–
MIEAEEQQPCKTDFYSELPKVELHAHLNGSISSHTMKKLIAQKPDLKIHDQMTVIDKGKKRTLEECFQMFQTIHQLTSSPEDILMVTKDVIKEFADDGVKYLELRSTPRRENATGMTKKTYVESILEGIKQSKQENLDIDVRYLIAVDRRGGPLVAKETVKLAEEFFLSTEGTVLGLDLSGDPTVGQAKDFLEPLLEAKKAGLKLALHLSEIPNQKKETQILLDLLPDRIGHGTFLNSGEGGSLDLVDFVRQHRIPLELCLTSNVKSQTVPSYDQHHFGFWYSIAHPSVICTDDKGVFATHLSQEYQLAAETFNLTQSQVWDLSYESINYIFASDSTRSELRKKWNHLKPRVLHI [ADAL]	57.1	57.2
MKKTPVFLESLVTNMLRLRAICPFSWRVFQFRPISCEPLIIQMNKCTDEEQMFGFIERNKAILSEKQVGCAFDMLWKLQKQKTSLLKNAEYVRDHPQFLTLHNLATNKFKLMNDDTLVNVLYVTQQFAGEAHDPLVEALVTEAWRRLERFDIKLLSEFSSCLADQHLYFSPLMGKIADIVHRNLETTQDLSSLSVLMVNISSLISRHFQQQLVNKTELLFDTIDSSEVNVAKSIAKFLRNVRYRYQPLLERCNNVFLSNVDHLDLDSISKILSVYKFLQFNSFEFIIMAKKKLTEMIPLCNHPASFVKLFVALGPIAGPEEKKQLKSTMLLMSEDLTGEQALAVLGAMGDMESRNSCLIKRVTSVLHKHLDGYKPLELLKITQELTFLHFQRKEFFAKLRELLLSYLKNSFIPTEVSVLVRAISLLPSPHLDEVGISRIEAVLPQCDLNNLSSFATSVLRWIQHDHMYLDNMTAKQLKLLQKLDHYGRQRLQHSNSLDLLRKELKSLKGNTFPESLLEEMIATLQHFMDDINYINVGEIASFISSTDYLSTLLLDRIASVAVQQIEKIHPFTIPAIIRPFSVLNYDPPQRDEFLGTCVQHLNSYLGILDPFILVFLGFSLATLEYFPEDLLKAIFNIKFLARLDSQLEILSPSRSARVQFHLMELNRSVCLECPEFQIPWFHDRFCQQYNKGIGGMDGTQQQIFKMLAEVLGGINCVKASVLTPYYHKVDFECILDKRKKPLPYGSHNIALGQLPEMPWESNIEIVGSRLPPGAERIALEFLDSKALCRNIPHMKGKSAMKKRHLEILGYRVIQISQFEWNSMALSTKDARMDYLRECIFGEVKSCL [FASTKD1]	–	49.9
MKPNFSLRLRIFNLNCWGIPYLSKHRADRMRRLGDFLNQESFDLALLEEVWSEQDFQYLRQKLSPTYPAAHHFRSGIIGSGLCVFSKHPIQELTQHIYTLNGYPYMIHHGDWFSGKAVGLLVLHLSGMVLNAYVTHLHAEYNRQKDIYLAHRVAQAWELAQFIHHTSKKADVVLLCGDLNMHPEDLGCCLLKEWTGLHDAYLETRDFKGSEEGNTMVPKNCYVSQQELKPFPFGVRIDYVLYKAVSGFYISCKSFETTTGFDPHRGTPLSDHEALMATLFVRHSPPQQNPSSTHGPAERSPLMCVLKEAWTELGLGMAQARWWATFASYVIGLGLLLLALLCVLAAGGGAGEAAILLWTPSVGLVLWAGAFYLFHVQEVNGLYRAQAELQHVLGRAREAQDLGPEPQPALLLGQQEGDRTKEQ [SMPD2]	–	55.7
MLILTKTAGVFFKPSKRKVYEFLRSFNFHPGTLFLHKIVLGIETSCDDTAAAVVDETGNVLGEAIHSQTEVHLKTGGIVPPAAQQLHRENIQRIVQEALSASGVSPSDLSAIATTIKPGLALSLGVGLSFSLQLVGQLKKPFIPIHHMEAHALTIRLTNKVEFPFLVLLISGGHCLLALVQGVSDFLLLGKSLDIAPGDMLDKVARRLSLIKHPECSTMSGGKAIEHLAKQGNRFHFDIKPPLHHAKNCDFSFTGLQHVTDKIIMKKEKEEGIEKGQILSSAADIAATVQHTMACHLVKRTHRAILFCKQRDLLPQNNAVLVASGGVASNFYIRRALEILTNATQCTLLCPPPRLCTDNGIMIAWNGIERLRAGLGILHDIEGIRYEPKCPLGVDISKEVGEASIKVPQLKMEI [OSGEPL1]	53.6	51.1
